Patent publication US9322000B2, “Methanol dehydrogenase enzymes from Bacillus” (Sinvent AS, priority 2012, dated 2016)

Experiments:
[1] = Alcohol dehydrogenase assay of purified MDH proteins with ethanol as substrate; type: biochemical
Description: Alcohol dehydrogenase activities were measured spectrophotometrically essentially as described previously (Hektor, Kloosterman et al. (2002) Chem 277(49): 46966-46973) and the reaction mixture contained: 100 mM Glycine-KOH pH 9.5 (unless otherwise stated), 5 mM MgSO4, 0.5 mM NAD^+ and 500 mM alcohol (methanol, ethanol, propanol, 1,3-propanediol, or butanol). NAD^+ was substituted with equal concentrations of NADP^+, FMN^+, and FAD^+, when indicated. The reaction mixture for measurements of formaldehyde reductase activity contained: 50 mM Potassium-phosphate buffer pH=6.7, 0.15 mM NADH, 1 mM DTT and 11.6 mM (0.1-116 mM) formaldehyde. The assay components were mixed in the cuvette and pre-warmed to 45° C., unless otherwise stated. The reactions were started by addition of 5-40 μg of the purified MDH proteins, and the production of NADH was monitored at 340 nm for 4 minutes. One unit of MDH activity was defined as the amount of enzyme needed to produce 1 μmol NADH per minute under the conditions described above. Purified Act (0.1-40 μg) or NudF (20 μg) proteins were added to the reaction mixtures as indicated in the text.
In order to establish reliable assay conditions for comparative biochemical characterizations, the six MDH proteins were analysed for pH and temperature optima. […]

[2] = system: 13C-methanol; assay: 13C-methanol labeling of genetically engineered B. subtilis; type: cell-based; conditions: B. subtilis 168 expressing Act, Mdh3, HxlA
Description: For the labeling experiments we used the B. subtilis strain that expresses Act, Mdh3, HxlA and HxlB and the strain that expresses Act, Mdh3, HxlA, HxlB, GlpX, Fba, Tkt, Pfk and Rpe. As a negative control the B. subtilis strain with the empty pHCMC04 plasmid was used. All B. subtilis strains were grown on M9 medium containing (per liter) 3.48 g Na2HPO4.12H20, 0.60 g of KH2PO4, 0.51 g of NaCl, 2.04 g of NH4Cl, 0.10 g of MgSO4, 4.38 mg of CaCl2, 15 mg of Na2EDTA.2H2O, 4.5 mg of ZnSO4.7H2O, 0.3 mg of CoCl2.6 H2O, 1 mg of MnCl2.4H2O, 1 mg of H3BO3, 0.4 mg of Na2MoO4.2H2O, 3 mg of FeSO4.7H2O and 0.3 mg of CuSO4.5H2O, 10 g of xylose (i.e. inducer) and 5 mg of chloramphenicol. All the cultivations were performed at 37° C. Cells strains were plated from a glycerol stock on a LB agar plate (10 g/l of tryptone, 5 g/l of yeast extract, 10 g/l of NaCl, and 16 g/l agar) containing 5 μg/ml of chloramphenicol and grown afterwards on a LB+chloramphenicol liquid medium for approximately 5 hours. The liquid pre-cultures containing M9 medium were inoculated from the LB cultures at a final OD600 between 1.4 and 1.8. […] The labeling patterns of intracellular metabolites were measured using a Dionex ICS 2000 system (Dionex, Sunnyvale, USA) coupled to a triple quadrupole QTrap 4000 mass spectrometer (Applied Biosystems, Foster City, USA).

[3] = system: 13C-methanol; assay: 13C-methanol labeling of genetically engineered C. glutamicum; type: cell-based; conditions: C. glutamicum delta ald expressing Mdh2, Hps and Phi; 40 mM 13C-methanol; 30 and 90 minutes
Description: For the labeling experiments we used the C. glutamicum delta ald strain that expresses Mdh2-MGA3 (pVWEx1-Mdh2), Hps and Phi (pEKEX3−Hps+Phi). As a negative control the C. glutamicum delta ald strain with the empty pEKEX3 plasmid was used. All C. glutamicum strains were grown on M9 medium containing (per liter) 3.48 g Na2HPO4.12 H2O, 0.60 g of KH2PO4, 0.51 g of NaCl, 2.04 g of NH4Cl, 0.10 g of MgSO4, 4.38 mg of CaCl2, 15 mg of Na2EDTA.2H2O, 4.5 mg of ZnSO4.7 H2O, 0.3 mg of CoCl2.6 H2O, 1 mg of MnCl2.4H2O, 1 mg of H3BO3, 0.4 mg of Na2MoO4.2H2O, 3 mg of FeSO4.7H2O and 0.3 mg of CuSO4.5H2O. For all the cultivation (M9 or LB), 1 mM of IPTG was used as inducer and 100 μg/ml of spectinomycin and 25 μg/ml of kanamycin were added in the medium as resistant markers. All the cultivations were performed at 30° C. Cell strains were plated from a glycerol stock on a LB agar plate (10 g/l of tryptone, 5 g/l of yeast extract, 10 g/l of NaCl, and 16 g/l agar) and grown afterwards on a LB liquid medium for 6 hours. The liquid pre-cultures containing M9 medium plus 3 g/l ribose were inoculated from the LB cultures at a final OD600 of 0.6 for 12 hours. […] The labeling patterns of intracellular metabolites were measured using a Dionex ICS 2000 system (Dionex, Sunnyvale, USA) coupled to a triple quadrupole QTrap 4000 mass spectrometer (Applied Biosystems, Foster City, USA).

B1: Mdh-MGA3: previously reported plasmid pBM19-encoded NAD-dependent methanol dehydrogenase of B. methanolicus MGA3, SEQ ID NO. 8 (protein)
chain: MTTNFFIPPASVIGRGAVKEVGTRLKQIGAKKALIVTDAFLHSTGLSEEVAKNIREAGVDVAIFPKAQPDPADTQVHEGVDVFKQENCDSLVSIGGGSSHDTAKAIGLVAANGGRINDYQGVNSVEKPVVPVVAITTTAGTGSETTSLAVITDSARKVKMPVIDEKITPTVAIVDPELMVKKPAGLTIATGMDALSHAIEAYVAKGATPVTDAFAIQAMKLINEYLPKAVANGEDIEAREKMAYAQYMAGVAFNNGGLGLVHSISHQVGGVYKLQHGICNSVNMPHVCAFNLIAKTERFAHIAELLGENVAGLSTAAAAERAIVALERINKSFGIPSGYAEMGVKEEDIELLAKNAYEDVCTQSNPRVPTVQDIAQIIKNAM
modifications: Bacillus methanolicus MGA3
**Q.** What does the source list for B1?
**A.** stimulation of Mdh activity with NudF ([1]; B. subtilis NudF added): about 8 fold; increase of catalytic activity in the presence of Act ([1]; MDH and Act 1:1): about 8 fold

B2: Mdh3-MGA3: NAD-dependent methanol dehydrogenase encoded by chromosomal gene mdh3 of B. methanolicus MGA3, SEQ ID NO. 4 (protein)
chain: MKNTQSAFYMPSVNLFGAGSVNEVGTRLAGLGVKKALLVTDAGLHSLGLSEKIAGIIREAGVEVAIFPKAEPNPTDKNVAEGLEAYNAENCDSIVTLGGGSSHDAGKAIALVAANGGTIHDYEGVDVSKKPMVPLIAINTTAGTGSELTKFTIITDTERKVKMAIVDKHVTPTLSINDPELMVGMPPSLTAATGLDALTHAIEAYVSTGATPITDALAIQAIKIISKYLPRAVANGKDIEAREQMAFAQSLAGMAFNNAGLGYVHAIAHQLGGFYNFPHGVCNAILLPHVCRFNLISKVERYAEIAAFLGENVDGLSTYEAAEKAIKAIERMARDLNIPKGFKELGAKEEDIETLAKNAMNDACALTNPRKPKLEEVIQIIKNAM
modifications: Bacillus methanolicus MGA3
**Q.** Which “13C labeling of metabolites (mass isotopomer fraction M1)” value ([2]; HxlB plus overexpressed PPP genes) does the source give for B2 here?
**A.** significant labeling incorporation was detected

**Q.** And the “13C labeling of metabolites (mass isotopomer fraction M1)” value ([2]; HxlB, no PPP genes overexpressed)?
**A.** no labeling was found

B3: Mdh2-MGA3: NAD-dependent methanol dehydrogenase encoded by chromosomal gene mdh2 of B. methanolicus MGA3, SEQ ID NO. 2 (protein)
chain: MTNTQSAFFMPSVNLFGAGSVNEVGTRLADLGVKKALLVTDAGLHGLGLSEKISSIIRAAGVEVSIFPKAEPNPTDKNVAEGLEAYNAENCDSIVTLGGGSSHDAGKAIALVAANGGKIHDYEGVDVSKEPMVPLIAINTTAGTGSELTKFTIITDTERKVKMAIVDKHVTPTLSINDPELMVGMPPSLTAATGLDALTHAIEAYVSTGATPITDALAIQAIKIISKYLPRAVANGKDIEAREQMAFAQSLAGMAFNNAGLGYVHAIAHQLGGFYNFPHGVCNAVLLPYVCRFNLISKVERYAEIAAFLGENVDGLSTYDAAEKAIKAIERMAKDLNIPKGFKELGAKEEDIETLAKNAMKDACALTNPRKPKLEEVIQIIKNAM
modifications: Bacillus methanolicus MGA3
**Q.** For B3, which “13C label incorporation into metabolites (mass isotopomer fraction M1)” value [3] is on record?
**A.** Significant label incorporation into metabolites was observed
